Test results from PMC10418629, “Functional Study of Amorpha fruticosa WRKY20 Gene in Response to Drought Stress”.

Biological target: T1, GST-AfWRKY20 (Amorpha fruticosa, UniProt A0A8K1R274 1-585)
T1 sequence: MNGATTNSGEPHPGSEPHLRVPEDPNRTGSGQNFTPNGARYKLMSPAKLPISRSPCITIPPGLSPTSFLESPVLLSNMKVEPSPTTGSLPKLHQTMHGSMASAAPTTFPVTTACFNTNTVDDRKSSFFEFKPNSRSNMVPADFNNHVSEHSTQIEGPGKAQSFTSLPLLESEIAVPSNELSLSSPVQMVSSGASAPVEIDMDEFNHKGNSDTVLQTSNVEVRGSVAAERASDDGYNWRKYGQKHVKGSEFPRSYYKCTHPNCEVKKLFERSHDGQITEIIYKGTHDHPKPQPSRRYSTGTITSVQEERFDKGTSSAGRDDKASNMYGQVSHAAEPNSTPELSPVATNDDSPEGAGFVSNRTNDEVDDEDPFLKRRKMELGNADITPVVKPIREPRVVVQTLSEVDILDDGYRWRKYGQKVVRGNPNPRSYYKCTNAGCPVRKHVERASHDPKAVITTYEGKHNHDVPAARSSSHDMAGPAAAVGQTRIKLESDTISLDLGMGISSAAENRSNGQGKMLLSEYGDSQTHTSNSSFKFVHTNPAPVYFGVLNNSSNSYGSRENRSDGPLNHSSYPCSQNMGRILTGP
Test: EMSA; unlabeled Cold-Pr competitor weakened the shift; EMSA kit (Biyuntian/Beyotime) per instructions; buffer, salt, pH and temperature not stated
Conditions: protein: recombinant; tags: GST; blunt as designed; printed strands are not exact complements (F has GGAAC / GGGC, complement of R has GGAC / GGGGC; possible misprint)

B1: W-box probe (Biotin-Pr) (dsDNA)
DNA 1: GGAACTTGACCTTGACCTTAGGGCTGCAGGAATTCG
DNA 2: CGAATTCCTGCAGCCCCTAAGGTCAAGGTCAAGTCC
B1: binds.
